Results published in paper PMC5546038.

Key:
Experiment in all cases: ELISA
human FcγRIIB = human FcγRIIB (UniProt P31994); settings: Fc 20 µg/ml (highest point of the titration); parent: est. 0.20; read off a plot
human FcγRIIA = human FcγRIIA (UniProt P12318); settings: Fc 20 µg/ml (highest point of the titration); parent: est. 0.53; read off a plot
human FcγRIIIB = human FcγRIIIB (UniProt O75015); settings: Fc 20 µg/ml (highest point of the titration); parent: est. 0.19; read off a plot
human FcγRIIIA = human FcγRIIIA (UniProt P08637); settings: Fc 20 µg/ml (highest point of the titration); parent: est. 0.99; read off a plot
human FcγRIIIA, sequence (P08637 17-208): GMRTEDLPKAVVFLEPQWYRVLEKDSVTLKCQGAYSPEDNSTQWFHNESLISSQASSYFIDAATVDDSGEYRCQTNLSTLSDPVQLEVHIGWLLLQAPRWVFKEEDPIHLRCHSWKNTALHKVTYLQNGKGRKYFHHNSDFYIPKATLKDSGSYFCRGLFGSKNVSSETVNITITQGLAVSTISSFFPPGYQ

C1q = settings: Ab 20 µg/ml (highest point of the titration); parent: est. 1.7; read off a plot
human FcγRI = human FcγRI (UniProt P12314); settings: Fc 20 µg/ml (highest point of the titration); parent: est. 2.1; read off a plot
human FcγRI, sequence (P12314 16-292): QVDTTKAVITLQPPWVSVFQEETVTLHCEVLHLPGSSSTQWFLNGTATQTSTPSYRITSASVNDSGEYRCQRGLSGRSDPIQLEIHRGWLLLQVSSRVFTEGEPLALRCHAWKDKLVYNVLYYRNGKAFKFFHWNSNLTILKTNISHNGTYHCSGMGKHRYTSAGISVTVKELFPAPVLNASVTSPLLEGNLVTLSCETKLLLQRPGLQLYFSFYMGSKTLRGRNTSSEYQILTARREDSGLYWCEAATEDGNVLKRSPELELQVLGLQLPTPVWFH

[1] = target: soluble recombinant tetrameric human DC-SIGN (UniProt Q9NNX6); settings: Fc 20 µg/ml (highest point of the titration); parent: est. 0.98; read off a plot
human Siglec-1 = human Siglec-1 (UniProt Q9BZZ2); settings: Fc 50 µg/ml (highest point of the titration); parent: est. 1.2; read off a plot
human Siglec-1, sequence (Q9BZZ2 20-1641): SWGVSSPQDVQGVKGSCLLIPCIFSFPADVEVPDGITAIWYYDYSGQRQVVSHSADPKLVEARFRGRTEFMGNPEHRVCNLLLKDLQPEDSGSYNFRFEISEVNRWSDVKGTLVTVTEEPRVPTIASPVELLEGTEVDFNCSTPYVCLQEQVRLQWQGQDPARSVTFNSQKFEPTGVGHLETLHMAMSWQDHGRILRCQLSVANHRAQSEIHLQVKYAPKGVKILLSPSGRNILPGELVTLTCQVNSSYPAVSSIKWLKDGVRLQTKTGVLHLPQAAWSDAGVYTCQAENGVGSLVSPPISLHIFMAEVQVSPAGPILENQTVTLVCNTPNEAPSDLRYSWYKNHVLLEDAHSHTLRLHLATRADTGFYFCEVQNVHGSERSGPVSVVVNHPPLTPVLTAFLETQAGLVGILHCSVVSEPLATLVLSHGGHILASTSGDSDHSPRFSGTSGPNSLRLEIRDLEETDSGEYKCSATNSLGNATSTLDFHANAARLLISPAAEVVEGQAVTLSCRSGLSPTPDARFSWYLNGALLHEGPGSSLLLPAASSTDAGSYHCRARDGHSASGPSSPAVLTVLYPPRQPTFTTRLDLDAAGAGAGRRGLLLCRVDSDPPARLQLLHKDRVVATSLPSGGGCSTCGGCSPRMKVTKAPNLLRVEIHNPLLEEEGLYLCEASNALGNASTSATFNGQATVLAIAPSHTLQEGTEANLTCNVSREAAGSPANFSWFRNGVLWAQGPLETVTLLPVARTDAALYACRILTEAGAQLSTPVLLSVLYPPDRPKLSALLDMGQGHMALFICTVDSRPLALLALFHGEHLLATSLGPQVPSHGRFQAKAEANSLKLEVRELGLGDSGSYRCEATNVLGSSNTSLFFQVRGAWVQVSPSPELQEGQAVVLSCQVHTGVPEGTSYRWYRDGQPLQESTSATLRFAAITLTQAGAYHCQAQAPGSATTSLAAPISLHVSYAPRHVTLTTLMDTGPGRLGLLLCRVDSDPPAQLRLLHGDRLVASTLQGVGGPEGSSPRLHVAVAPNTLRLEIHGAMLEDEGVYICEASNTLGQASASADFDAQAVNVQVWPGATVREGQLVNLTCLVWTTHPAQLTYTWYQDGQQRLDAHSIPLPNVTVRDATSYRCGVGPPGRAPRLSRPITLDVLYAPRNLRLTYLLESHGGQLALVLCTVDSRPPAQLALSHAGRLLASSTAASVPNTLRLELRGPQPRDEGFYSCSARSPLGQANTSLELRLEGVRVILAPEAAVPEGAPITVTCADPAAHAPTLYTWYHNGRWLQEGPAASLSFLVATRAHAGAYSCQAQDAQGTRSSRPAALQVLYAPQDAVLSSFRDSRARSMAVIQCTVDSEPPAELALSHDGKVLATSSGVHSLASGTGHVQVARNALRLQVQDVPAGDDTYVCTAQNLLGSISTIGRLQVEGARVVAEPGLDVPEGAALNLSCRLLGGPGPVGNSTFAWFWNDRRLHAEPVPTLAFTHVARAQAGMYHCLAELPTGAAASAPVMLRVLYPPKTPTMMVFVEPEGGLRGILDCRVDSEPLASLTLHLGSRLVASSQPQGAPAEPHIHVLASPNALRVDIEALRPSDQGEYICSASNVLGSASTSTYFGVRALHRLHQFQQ

human FcγRIIA, sequence (P12318 34-217): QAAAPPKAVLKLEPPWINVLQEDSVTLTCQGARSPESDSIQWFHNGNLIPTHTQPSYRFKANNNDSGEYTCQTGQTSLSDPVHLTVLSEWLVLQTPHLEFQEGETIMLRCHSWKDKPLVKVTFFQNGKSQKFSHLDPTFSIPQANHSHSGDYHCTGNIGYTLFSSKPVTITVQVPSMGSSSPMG
human FcγRIIB, sequence (P31994 43-217): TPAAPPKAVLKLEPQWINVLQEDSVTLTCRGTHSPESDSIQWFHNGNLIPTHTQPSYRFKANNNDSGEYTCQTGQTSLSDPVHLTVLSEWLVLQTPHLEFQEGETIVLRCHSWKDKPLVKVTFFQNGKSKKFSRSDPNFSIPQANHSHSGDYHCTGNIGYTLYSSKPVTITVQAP
human FcγRIIIB, sequence (O75015 17-200): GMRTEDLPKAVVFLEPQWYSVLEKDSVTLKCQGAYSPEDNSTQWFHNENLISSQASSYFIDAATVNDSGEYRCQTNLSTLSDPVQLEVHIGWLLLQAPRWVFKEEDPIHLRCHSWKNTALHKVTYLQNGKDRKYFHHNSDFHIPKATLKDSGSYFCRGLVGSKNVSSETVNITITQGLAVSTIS

Substance | response (human FcγRIIB) | response (human FcγRIIA) | response (human FcγRIIIB) | response (human FcγRIIIA) | response (C1q) | response (human FcγRI) | response [1] | response (human Siglec-1)
hexa-Fc (human IgG1-Fc with L309C/H310L and the 18-amino acid IgM tail piece) D221N; N297A | 0.069 OD 405nm | 0.065 OD 405nm | 0.073 OD 405nm | 0.07 OD 405nm | 0.93 OD 405nm | 0.065 OD 405nm | 0.33 OD 405nm | 0.96 OD 405nm
hexa-Fc (human IgG1-Fc with L309C/H310L and the 18-amino acid IgM tail piece) N297A | 0.069 OD 405nm | 0.065 OD 405nm | 0.073 OD 405nm | 0.07 OD 405nm | 0.9 OD 405nm | 0.065 OD 405nm | 0.28 OD 405nm | –
hexa-Fc (human IgG1-Fc with L309C/H310L and the 18-amino acid IgM tail piece) D221N; N297A; N563A | – | – | – | – | 0.9 OD 405nm | – | 0.37 OD 405nm | 1.7 OD 405nm
hexa-Fc (human IgG1-Fc with L309C/H310L and the 18-amino acid IgM tail piece) N297A; N563A | – | – | – | – | 0.97 OD 405nm | – | 0.27 OD 405nm | 0.15 OD 405nm
hexa-Fc (human IgG1-Fc with L309C/H310L and the 18-amino acid IgM tail piece) D221N; N563A | 0.12 OD 405nm | 0.33 OD 405nm | 0.1 OD 405nm | 1.6 OD 405nm | 2.2 OD 405nm | 2 OD 405nm | 0.57 OD 405nm | 1.6 OD 405nm
hexa-Fc (human IgG1-Fc with L309C/H310L and the 18-amino acid IgM tail piece) N563A | – | – | – | – | 2.3 OD 405nm | – | 0.84 OD 405nm | –
hexa-Fc (human IgG1-Fc with L309C/H310L and the 18-amino acid IgM tail piece) D221N | 0.08 OD 405nm | 0.12 OD 405nm | 0.073 OD 405nm | 0.09 OD 405nm | 1.8 OD 405nm | 0.24 OD 405nm | 0.64 OD 405nm | 1.2 OD 405nm
